In PMC4665922, “Comparative assessment of native and heterologous 2-oxo acid decarboxylases for application in isobutanol production by Saccharomyces cerevisiae” (Biotechnology for Biofuels, 2015):

Columns and labels:
Experiment in all cases: cells, lysate or membranes
Format in all cases: biochemical, Lactococcus lactis
[1] = substrate: CC[C@H](C)C(=O)C(=O)O; settings: cell extract of ammonium-grown cells, pH 7.0, 30 °C, 0.2 mM thiamine pyrophosphate, 5 mM MgCl2
[2] = substrate: CC(C)CC(=O)C(=O)O; settings: cell extract of ammonium-grown cells, pH 7.0, 30 °C, 0.2 mM thiamine pyrophosphate, 5 mM MgCl2
[3] = substrate: CC(C)C(=O)C(=O)O; settings: cell extract of ammonium-grown cells, pH 7.0, 30 °C, 0.2 mM thiamine pyrophosphate, 5 mM MgCl2, cooperative, Hill equation

B1: KivD (Lactococcus lactis subsp. lactis) (protein)
chain: MYTVGDYLLDRLHELGIEEIFGVPGDYNLQFLDQIISHKDMKWVGNANELNASYMADGYARTKKAAAFLTTFGVGELSAVNGLAGSYAENLPVVEIVGSPTSKVQNEGKFVHHTLADGDFKHFMKMHEPVTAARTLLTAENATVEIDRVLSALLKERKPVYINLPVDVAAAKAEKPSLPLKKENSTSNTSDQEILNKIQESLKNAKKPIVITGHEIISFGLEKTVTQFISKTKLPITTLNFGKSSVDEALPSFLGIYNGTLSEPNLKEFVESADFILMLGVKLTDSSTGAFTHHLNENKMISLNIDEGKIFNERIQNFDFESLISSLLDLSEIEYKGKYIDKKQEDFVPSNALLSQDRLWQAVENLTQSNETIVAEQGTSFFGASSIFLKSKSHFIGQPLWGSIGYTFPAALGSQIADKESRHLLFIGDGSLQLTVQELGLAIREKINPICFIINNDGYTVEREIHGPNQSYNDIPMWNYSKLPESFGATEDRVVSKIVRTENEFVSVMKEAQADPNRMYWIELILAKEGAPKVLKKMGKLFAEQNKS
notes: full-length ORF, codon optimised, no tag mentioned; TDH3 promoter plasmid pUDE336 in S. cerevisiae IME262 (pdc1 pdc5 pdc6 aro10 deleted); cell extract
Km [1]: 12.9 ± 2.87 mM
Vmax [1]: 0.05 µmol/min/mg
Vmax/Km [1]: 3.9 µL/min/mg
Km [2]: 2.42 ± 0.90 mM
Vmax [2]: 0.04 µmol/min/mg
Vmax/Km [2]: 17 µL/min/mg
K0.5 [3]: 7.73 ± 1.62 mM
Vmax [3]: 0.03 µmol/min/mg
Vmax/Km [3]: 3.9 µL/min/mg
